We go through 2 substances from publication PMC6342966.

In this assay the target is His6-Z_GFP 11 (GFP 11 genetically fused to the C-terminus of the IgG binding Z domain derived from protein A). The assay is described as follows: split reporter (BiFC, NanoBiT); split-GFP fluorescence complementation in solution, 96-well plate, TNG buffer, 225 µM His6-Z_GFP 11 and 0.2 µM GFP 1–10 variant, 25 °C, excitation 488 nm, emission 535 nm, controls without His6-Z_GFP 11 subtracted.

Turning to “GFP 1–10^mat (GFP 1–10 with maturated chromophore) (domain or fragment)”, the rate of increase of the fluorescent signal after adding His6-Z GFP 11, additional hour after the first two minutes was found to be 6 a.u./sec and the rate of increase of the fluorescent signal after adding His6-Z GFP 11, first two minutes is 83 a.u./sec.

Take “GFP 1–10 OPT (non-maturated) (domain or fragment)”: the rate of increase of the fluorescent signal after adding His6-Z GFP 11 turned out to be 0.5 a.u./second.
